For the series, the target named is Rad51-2A (Saccharomyces cerevisiae, UniProt P25454 1-400, S125A;S375A). Nature of the series: EMSA. (In general: Mobility shift assays separate free from complexed probe on a gel.)

Consider 1 molecule from PMC7007264.

Rad51-2A, sequence (P25454 whole entry S125A/S375A): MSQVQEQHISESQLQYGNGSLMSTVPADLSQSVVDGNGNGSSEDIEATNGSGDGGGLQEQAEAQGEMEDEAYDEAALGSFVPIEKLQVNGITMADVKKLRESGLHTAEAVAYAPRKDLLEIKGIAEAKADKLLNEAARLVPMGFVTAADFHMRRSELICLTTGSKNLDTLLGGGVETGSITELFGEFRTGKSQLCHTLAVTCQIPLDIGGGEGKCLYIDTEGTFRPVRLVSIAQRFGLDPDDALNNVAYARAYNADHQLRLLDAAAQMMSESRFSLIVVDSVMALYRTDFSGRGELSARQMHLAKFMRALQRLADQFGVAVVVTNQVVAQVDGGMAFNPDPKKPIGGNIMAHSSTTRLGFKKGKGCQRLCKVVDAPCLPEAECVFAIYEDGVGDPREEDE

B1: ssDNA EMSA probe (ssDNA)
DNA: CGGGTGTCGGGGCTGGCTTAACTATGCGGCATCAGAGCAGATTGTACTGAGAGTGCACCATATGCGGTGTGAAATACCGCACAGATGCGT
Take B1: the binding result is reported as “no binding”.
